From US8765433B2, “Alcohol dehydrogenases (ADH) useful for fermentive production of lower alkyl alcohols” (Butamax Advanced Biofuels LLC, priority 2009, dated 2014)

B1: CbADH: Clostridium beijerinckii ADH, SEQ ID NO: 29 (protein, listed as Clostridium beijerinckii)
chain: MKGFAMLGINKLGWIEKERPVAGSYDAIVRPLAVSPCTSDIHTVFEGALGDRKNMILGHEAVGEVVEVGSEVKDFKPGDRVIVPCTTPDWRSLEVQAGFQQHSNGMLAGWKFSNFKDGVFGEYFHVNDADMNLAILPKDMPLENAVMITDMMTTGFHGAELADIQMGSSVVVIGIGAVGLMGIAGAKLRGAGRIIGVGSRPICVEAAKFYGATDILNYKNGHIVDQVMKLTNGKGVDRVIMAGGGSETLSQAVSMVKPGGIISNINYHGSGDALLIPRVEWGCGMAHKTIKGGLCPGGRLRAEMLRDMVVYNRVDLSKLVTHVYHGFDHIEEALLLMKDKPKDLIKAVVIL
B2: RnADH1: Rattus norvegicus ADH1, SEQ ID NO: 32 (protein, listed as Rattus norvegicus)
chain: MSTAGKVIKCKAAVLWEPHKPFTIEDIEVAPPKAHEVRIKMVATGVCRSDDHAVSGSLFTPLPAVLGHEGAGIVESIGEGVTCVKPGDKVIPLFSPQCGKCRICKHPESNLCCQTKNLTQPKGALLDGTSRFSCRGKPIHHFISTSTFSQYTVVDDIAVAKIDAAAPLDKVCLIGCGFSTGYGSAVQVAKVTPGSTCAVFGLGGVGLSVVIGCKTAGAAKIIAVDINKDKFAKAKELGATDCINPQDYTKPIQEVLQEMTDGGVDFSFEVIGRLDTMTSALLSCHSACGVSVIVGVPPSAQSLSVNPMSLLLGRTWKGAIFGGFKSKDAVPKLVADFMAKKFPLEPLITHVLPFEKINEAFDLLRAGKSIRTVLTF
B3: TADH: Thermus sp. ATN1 ADH, SEQ ID NO: 33 (protein)
chain: MRAVVFENKERVAVKEVNAPRLQHPLDALVRVHLAGICGSDLHLYHGKIPVLPGSVLGHEFVGQVEAVGEGIQDLQPGDWVVGPFHIACGTCPYCRRHQYNLCERGGVYGYGPMFGNLQGAQAEILRVPFSNVNLRKLPPNLSPERAIFAGDILSTAYGGLIQGQLRPGDSVAVIGAGPVGLMAIEVAQVLGASKILAIDRIPERLERAASLGAIPINAEQENPVRRVRSETNDEGPDLVLEAVGGAATLSLALEMVRPGGRVSAVGVDNAPSFPFPLASGLVKDLTFRIGLANVHLYIDAVLALLASGRLQPERIVSHYLPLEEAPRGYELFDRKEALKVLLVVRG
modifications: Thermus sp. ATN1
B4: ScADH7: Saccharomyces cerevisiae ADH7 alcohol dehydrogenase, SEQ ID NO: 23 (protein, listed as Saccharomyces cerevisiae)
chain: MLYPEKFQGIGISNAKDWKHPKLVSFDPKPFGDHDVDVEIEACGICGSDFHIAVGNWGPVPENQILGHEIIGRVVKVGSKCHTGVKIGDRVGVGAQALACFECERCKSDNEQYCTNDHVLTMWTPYKDGYISQGGFASHVRLHEHFAIQIPENIPSPLAAPLLCGGITVFSPLLRNGCGPGKRVGIVGIGGIGHMGILLAKAMGAEVYAFSRGHSKREDSMKLGADHYIAMLEDKGWTEQYSNALDLLVVCSSSLSKVNFDSIVKIMKIGGSIVSIAAPEVNEKLVLKPLGLMGVSISSSAIGSRKEIEQLLKLVSEKNVKIWVEKLPISEEGVSHAFTRMESGDVKYRFTLVDYDKKFHK
B5: PzADH: Phenylobacterium zucineum HLK1 ADH, SEQ ID NO: 34 (protein)
chain: MKALVYGGPGQKSLEDRPKPELQAPGDAIVRIVKTTICGTDLHILKGDVATCAPGRILGHEGVGIVDSVGAAVTAFRPGDHVLISCISACGKCDYCRRGMYSHCTTGGWILGNEIDGTQAEYVRTPHADTSLYPVPAGADEEALVMLSDILPTGFECGVLNGKVAPGGTVAIVGAGPIGLAALLTAQFYSPAEIIMIDLDDNRLGIARQFGATQTINSGDGRAAETVKALTGGRGVDTAIEAVGVPATFELCQDLVGPGGVIANIGVHGRKVDLHLDRLWSQNIAITTRLVDTVSTPMLLKTVQSRKLDPSQLITHRFRLDEILAAYDTFARAADTQALKVIIAA
modifications: Phenylobacterium zucineum HLK1
B6: MsADH: Methylocella silvestris BL2 ADH, SEQ ID NO: 35 (protein)
chain: MKALVYHGPGQKALEERPKPQIEASGDAIVKIVKTTICGTDLHILKGDVATCAPGRILGHEGVGIIDSVGAGVTAFQPGDRVLISCISSCGKCDYCRRGLYSHCTTGGWILGNEIDGTQAEYVRTPHADTSLYRIPAGADEEALVMLSDILPTGFECGVLNGKVEPGSTVAIVGAGPIGLAALLTAQFYAPGDIIMIDLDDNRLDVARRFGATHTINSGDGKAAEAVKALTGGIGVDTAIEAVGIPATFLLCEDIVAPGGVIANVGVHGVKVDLHLERLWAHNITITTRLVDTVTTPMLLKTVQSKKLDPLQLITHRFTLDHILDAYDTFSRAADTKALKVIVSA
modifications: Methyloceclla silvestris BL2
B7: AbADH: Acinetobacter baumannii AYE ADH, SEQ ID NO: 36 (protein)
chain: MENIMKAMVYYGDHDIRFEERKKPELIDPTDAIIKMTKTTICGTDLGIYKGKNPEIEQKEQEKNGSFNGRILGHEGIGIVEQIGSSVKNIKVGDKVIVSCVSRCGTCENCAKQLYSHCRNDGGWIMGYMIDGTQAEYVRTPFADTSLYVLPEGLNEDVAVLLSDALPTAHEIGVQNGDIKPGDTVAIVGAGPVGMSALLTAQFYSPSQIIMIDMDENRLAMAKELGATDTINSGTEDAIARVMELTNQRGVDCAIEAVGIEPTWDICQNIVKEGGHLANVGVHGKSVNFSLEKLWIKNLTITTGLVNANTTGMLLKSCCSGKLPMEKLATHHFKFNEIEKAYDVFINAAKEKAMKVIIDF
modifications: Acinetobacter baumannii AYE
B8: GbADH: Geobacillus sp. WCH70 ADH, SEQ ID NO: 37 (protein)
chain: MKALTYLGPGKKEVMEKPKPKIEKETDAIVKITKTTICGTDLHILSGDVPTVEEGRILGHEGVGIIEEVGSGVKNFKKGDRVLISCITSCGKCENCKKGLYAHCEDGGWILGHLIDGTQAEYVRIPHADNSLYPIPEGVDEEALVMLSDILPTGFEIGVLNGKVQPGQTVAIIGAGPVGMAALLTAQFYSPAEIIMVDLDDNRLEVAKKFGATQVVNSADGKAVEKIMELTGGKGVDVAMEAVGIPVTFDICQEIVKPGGYIANIGVHGKSVEFHIEKLWIRNITLTTGLVNTTSTPMLLKTVQSKKLKPEQLITHRFAFADIMKAYEVFGNAAKEKALKVIISND
modifications: Geobacillus sp. WCH70
B9: HLADH: Horse-liver ADH (A-6128) purchased from Sigma; control polypeptide, SEQ ID NO: 21 (protein, listed as Equus caballus)
chain: MSTAGKVIKCKAAVLWEEKKPFSIEEVEVAPPKAHEVRIKMVATGICRSDDHVVSGTLVTPLPVIAGHEAAGIVESIGEGVTTVRPGDKVIPLFTPQCGKCRVCKHPEGNFCLKNDLSMPRGTMQDGTSRFTCRGKPIHHFLGTSTFSQYTVVDEISVAKIDAASPLEKVCLIGCGFSTGYGSAVKVAKVTQGSTCAVFGLGGVGLSVIMGCKAAGAARIIGVDINKDKFAKAKEVGATECVNPQDYKKPIQEVLTEMSNGGVDFSFEVIGRLDTMVTALSCCQEAYGVSVIVGVPPDSQNLSMNPMLLLSGRTWKGAIFGGFKSKDSVPKLVADFMAKKFALDPLITHVLPFEKINEGFDLLRSGESIRTILTF
B10: SadB: Achromobacter xylosoxidans Secondary Alcohol Dehydrogenase B; control polypeptide, SEQ ID NO: 26 (protein)
chain: MKALVYHGDHKISLEDKPKPTLQKPTDVVVRVLKTTICGTDLGIYKGKNPEVADGRILGHEGVGVIEEVGESVTQFKKGDKVLISCVTSCGSCDYCKKQLYSHCRDGGWILGYMIDGVQAEYVRIPHADNSLYKIPQTIDDEIAVLLSDILPTGHEIGVQYGNVQPGDAVAIVGAGPVGMSVLLTAQFYSPSTIIVIDMDENRLQLAKELGATHTINSGTENVVEAVHRIAAEGVDVAIEAVGIPATWDICQEIVKPGAHIANVGVHGVKVDFEIQKLWIKNLTITTGLVNTNTTPMLMKVASTDKLPLKKMITHRFELAEIEHAYQVFLNGAKEKAMKIILSNAGAA
modifications: Achromobacter xylosoxidans

assay: Cofactor specificity in isobutyraldehyde reduction reactions; assay type: biochemical; conditions: Table 7
Procedure: (§1) As a routine practice, the crude extracts and purified proteins were assayed for butanol oxidation activity, in order to ensure that the recombinant proteins were active throughout the purification process. […] Alcohol oxidation activities were carried out in 50 mM sodium phosphate buffer at pH 8.8 and aldehyde reduction reactions were assayed in 190 mM potassium phosphate buffer at pH 7.0. Depending on the nature of reaction being carried out, the enzyme and cofactor stocks were diluted in the reaction buffers at the respective pHs. Either buffer or cell extract prepared from the proprietary E. coli strain (with no ADH plasmid) was used as the negative control for assays with purified protein and cell-free extracts, respectively.
In initial experiments, there were insufficient levels of protein expression with EhADH1 and RpADH8. […] It is believed that one of skill in the art could further optimize expression and assay conditions for these candidates. Sufficient amounts of active protein could be purified with all other enzymes for which data are presented. […]

Molecule	Other enzymatic properties and cofactor preference
B1	NADPH specific
B2	NADH specific
B3	NADH specific
B4	NADPH specific

same assay, conditions: Table 8

Molecule	Other enzymatic properties and cofactor preference
B5	NADH specific
B6	NADH specific
B7	NADH specific
B8	NADPH specific

same assay, conditions: isobutyraldehyde reduction, NADH or NADPH as cofactor

Molecule	COFACTOR PREFERENCE
B1	NADPH
B2	NADH
B3	NADH
B5	NADH
B6	NADH
B7	NADH
B8	NADPH
B9	NADH
B4	NADPH
B10	NADH

assay: Isobutanol oxidation assay; assay type: biochemical; conditions: Table 8
Procedure: as §1
Kinetic constants of the ADH enzymes were calculated and compared to identify those candidate ADH enzymes with the most desirable properties for the conversion of isobutyraldehyde to isobutanol in the last step of the engineered pathway for isobutanol production. The assays for determining the kinetic constants were carried out using initial rates from the assays described above. […] The concentration of a given enzyme was such that it was conducive for the measurement of initial velocities over a 1-min time course. For each enzyme, Michaelis-Menten plots were generated with a broad range of substrate concentrations. Rough estimates of KM were obtained, based on which the assays were redesigned so as to use substrate concentrations in the range 0.5 to 10 times the KM value, to be able to obtain the appropriate kinetic constants. […] When calculating the KI for isobutanol, the same reactions were carried out in the presence of varying concentrations of isobutanol (generally 0-535 mM) in the reaction (see FIG. 7, for example). Reactions with isobutanol substrate were performed at 30° C. in 50 mM Sodium phosphate buffer, pH 8.8, containing 7.5 mM NAD. The Enzyme kinetics module (Version 1.3) of SigmaPlot 11 (Systat Software, Inc.) was used to fit data to Michaelis-Menten equations and calculate the kinetic constants. The kcat/KM is derived from the individual numbers of kcat and KM and not an experimentally determined value. The ratios of the KM, KI, and kcat/KM for each candidate enzyme as compared to the same parameter for SadB are given in Table 9.

Molecule	conversion of isobutanol to isobutyraldehyde
B5	No measureable
B6	No measureable
B7	No measureable
B8	No measureable
